{
  "source": "patent US20180016318A1",
  "about": "(Eli Lilly, published 2018)",
  "molecules": {"B1": {"name": "Example 3 (SEQ ID NO: 3) (peptide)", "peptide": "[NMeI]VLSLDVPIGLLQILLEQEKQEKEKQQAK([AEEA-AEEA-γGlu-γGlu-C18 diacid])TNAQILAQV-NH2", "modifications": "N-terminus assumed", "SMILES": "CC[C@H](C)[C@H](NC)C(=O)N[C@H](C(=O)N[C@@H](CC(C)C)C(=O)N[C@@H](CO)C(=O)N[C@@H](CC(C)C)C(=O)N[C@@H](CC(=O)O)C(=O)N[C@H](C(=O)N1CCC[C@H]1C(=O)N[C@H](C(=O)NCC(=O)N[C@@H](CC(C)C)C(=O)N[C@@H](CC(C)C)C(=O)N[C@@H](CCC(N)=O)C(=O)N[C@H](C(=O)N[C@@H](CC(C)C)C(=O)N[C@@H](CC(C)C)C(=O)N[C@@H](CCC(=O)O)C(=O)N[C@@H](CCC(N)=O)C(=O)N[C@@H](CCC(=O)O)C(=O)N[C@@H](CCCCN)C(=O)N[C@@H](CCC(N)=O)C(=O)N[C@@H](CCC(=O)O)C(=O)N[C@@H](CCCCN)C(=O)N[C@@H](CCC(=O)O)C(=O)N[C@@H](CCCCN)C(=O)N[C@@H](CCC(N)=O)C(=O)N[C@@H](CCC(N)=O)C(=O)N[C@@H](C)C(=O)N[C@@H](CCCCNC(=O)COCCOCCNC(=O)COCCOCCNC(=O)CC[C@H](NC(=O)CC[C@H](NC(=O)CCCCCCCCCCCCCCCCC(=O)O)C(=O)O)C(=O)O)C(=O)N[C@H](C(=O)N[C@@H](CC(N)=O)C(=O)N[C@@H](C)C(=O)N[C@@H](CCC(N)=O)C(=O)N[C@H](C(=O)N[C@@H](CC(C)C)C(=O)N[C@@H](C)C(=O)N[C@@H](CCC(N)=O)C(=O)N[C@H](C(N)=O)C(C)C)[C@@H](C)CC)[C@@H](C)O)[C@@H](C)CC)[C@@H](C)CC)C(C)C)C(C)C"}, "B2": {"name": "Example 6 (SEQ ID NO: 6) (peptide)", "peptide": "[NMeI]VLSLDVPIGLLQILLEQEKQEKEKQQAK([AEEA-AEEA-γGlu-γGlu-C20 diacid])TNAEILAQV-NH2", "modifications": "N-terminus assumed", "SMILES": "CC[C@H](C)[C@H](NC)C(=O)N[C@H](C(=O)N[C@@H](CC(C)C)C(=O)N[C@@H](CO)C(=O)N[C@@H](CC(C)C)C(=O)N[C@@H](CC(=O)O)C(=O)N[C@H](C(=O)N1CCC[C@H]1C(=O)N[C@H](C(=O)NCC(=O)N[C@@H](CC(C)C)C(=O)N[C@@H](CC(C)C)C(=O)N[C@@H](CCC(N)=O)C(=O)N[C@H](C(=O)N[C@@H](CC(C)C)C(=O)N[C@@H](CC(C)C)C(=O)N[C@@H](CCC(=O)O)C(=O)N[C@@H](CCC(N)=O)C(=O)N[C@@H](CCC(=O)O)C(=O)N[C@@H](CCCCN)C(=O)N[C@@H](CCC(N)=O)C(=O)N[C@@H](CCC(=O)O)C(=O)N[C@@H](CCCCN)C(=O)N[C@@H](CCC(=O)O)C(=O)N[C@@H](CCCCN)C(=O)N[C@@H](CCC(N)=O)C(=O)N[C@@H](CCC(N)=O)C(=O)N[C@@H](C)C(=O)N[C@@H](CCCCNC(=O)COCCOCCNC(=O)COCCOCCNC(=O)CC[C@H](NC(=O)CC[C@H](NC(=O)CCCCCCCCCCCCCCCCCCC(=O)O)C(=O)O)C(=O)O)C(=O)N[C@H](C(=O)N[C@@H](CC(N)=O)C(=O)N[C@@H](C)C(=O)N[C@@H](CCC(=O)O)C(=O)N[C@H](C(=O)N[C@@H](CC(C)C)C(=O)N[C@@H](C)C(=O)N[C@@H](CCC(N)=O)C(=O)N[C@H](C(N)=O)C(C)C)[C@@H](C)CC)[C@@H](C)O)[C@@H](C)CC)[C@@H](C)CC)C(C)C)C(C)C"}, "B3": {"name": "Example 7 (SEQ ID NO: 7) (peptide)", "peptide": "[NMeI]VTSLDVPIGLLQILIEQEKQEKEKQQAK([AEEA-AEEA-γGlu-γGlu-C20 diacid])TNAEILAQV-NH2", "modifications": "N-terminus assumed", "SMILES": "CC[C@H](C)[C@H](NC)C(=O)N[C@H](C(=O)N[C@H](C(=O)N[C@@H](CO)C(=O)N[C@@H](CC(C)C)C(=O)N[C@@H](CC(=O)O)C(=O)N[C@H](C(=O)N1CCC[C@H]1C(=O)N[C@H](C(=O)NCC(=O)N[C@@H](CC(C)C)C(=O)N[C@@H](CC(C)C)C(=O)N[C@@H](CCC(N)=O)C(=O)N[C@H](C(=O)N[C@@H](CC(C)C)C(=O)N[C@H](C(=O)N[C@@H](CCC(=O)O)C(=O)N[C@@H](CCC(N)=O)C(=O)N[C@@H](CCC(=O)O)C(=O)N[C@@H](CCCCN)C(=O)N[C@@H](CCC(N)=O)C(=O)N[C@@H](CCC(=O)O)C(=O)N[C@@H](CCCCN)C(=O)N[C@@H](CCC(=O)O)C(=O)N[C@@H](CCCCN)C(=O)N[C@@H](CCC(N)=O)C(=O)N[C@@H](CCC(N)=O)C(=O)N[C@@H](C)C(=O)N[C@@H](CCCCNC(=O)COCCOCCNC(=O)COCCOCCNC(=O)CC[C@H](NC(=O)CC[C@H](NC(=O)CCCCCCCCCCCCCCCCCCC(=O)O)C(=O)O)C(=O)O)C(=O)N[C@H](C(=O)N[C@@H](CC(N)=O)C(=O)N[C@@H](C)C(=O)N[C@@H](CCC(=O)O)C(=O)N[C@H](C(=O)N[C@@H](CC(C)C)C(=O)N[C@@H](C)C(=O)N[C@@H](CCC(N)=O)C(=O)N[C@H](C(N)=O)C(C)C)[C@@H](C)CC)[C@@H](C)O)[C@@H](C)CC)[C@@H](C)CC)[C@@H](C)CC)C(C)C)[C@@H](C)O)C(C)C"}, "B4": {"name": "Example 1 (SEQ ID NO: 1) (peptide)", "peptide": "Ac-IVLSLDVPIGLLQILLEQEKQEKEKQQAK([AEEA-AEEA-γGlu-γGlu-C18 diacid])TNAQILAQV-NH2", "SMILES": "CC[C@H](C)[C@H](NC(C)=O)C(=O)N[C@H](C(=O)N[C@@H](CC(C)C)C(=O)N[C@@H](CO)C(=O)N[C@@H](CC(C)C)C(=O)N[C@@H](CC(=O)O)C(=O)N[C@H](C(=O)N1CCC[C@H]1C(=O)N[C@H](C(=O)NCC(=O)N[C@@H](CC(C)C)C(=O)N[C@@H](CC(C)C)C(=O)N[C@@H](CCC(N)=O)C(=O)N[C@H](C(=O)N[C@@H](CC(C)C)C(=O)N[C@@H](CC(C)C)C(=O)N[C@@H](CCC(=O)O)C(=O)N[C@@H](CCC(N)=O)C(=O)N[C@@H](CCC(=O)O)C(=O)N[C@@H](CCCCN)C(=O)N[C@@H](CCC(N)=O)C(=O)N[C@@H](CCC(=O)O)C(=O)N[C@@H](CCCCN)C(=O)N[C@@H](CCC(=O)O)C(=O)N[C@@H](CCCCN)C(=O)N[C@@H](CCC(N)=O)C(=O)N[C@@H](CCC(N)=O)C(=O)N[C@@H](C)C(=O)N[C@@H](CCCCNC(=O)COCCOCCNC(=O)COCCOCCNC(=O)CC[C@H](NC(=O)CC[C@H](NC(=O)CCCCCCCCCCCCCCCCC(=O)O)C(=O)O)C(=O)O)C(=O)N[C@H](C(=O)N[C@@H](CC(N)=O)C(=O)N[C@@H](C)C(=O)N[C@@H](CCC(N)=O)C(=O)N[C@H](C(=O)N[C@@H](CC(C)C)C(=O)N[C@@H](C)C(=O)N[C@@H](CCC(N)=O)C(=O)N[C@H](C(N)=O)C(C)C)[C@@H](C)CC)[C@@H](C)O)[C@@H](C)CC)[C@@H](C)CC)C(C)C)C(C)C"}},
  "note": "Starred links: 1 amine or outer side, 2 acyl side, 3 side chain; linkers in the order of their positions; H or OH if unused. Non-standard residues stand in square brackets, D forms with d. Groups on a side chain read outwards from the residue. No end group written: not given here. *: point of attachment. C20 diacid = O=C(O)CCCCCCCCCCCCCCCCCCC(=O)*; C18 diacid = O=C(O)CCCCCCCCCCCCCCCCC(=O)*; γGlu = O=C(O)[C@H](CCC(=O)[*:2])N[*:1]; NMeI = CC[C@H](C)[C@H](NC)C(=O)O; AEEA = NCCOCCOCC(=O)O",
  "data": [
    {"molecular_target": "human CRHR1 (corticotropin releasing hormone receptor-1) (human) (UniProt P34998)", "assay": "cell-based or functional assay", "units": {"Average EC50 (nM), cell-based cAMP assay, Y79 cells with endogenous human CRHR1": "nM"}, "values": [
      {"molecule": "human UCN1 (urocortin-1) (from UniProt P55089 83-122) (ligand)", "Average EC50 (nM), cell-based cAMP assay, Y79 cells with endogenous human CRHR1": 7.3}
    ]},
    {"molecular_target": "T1, human CRHR1 (corticotropin releasing hormone receptor-1) (human, UniProt P34998 24-415)", "T1 sequence (looked up)": "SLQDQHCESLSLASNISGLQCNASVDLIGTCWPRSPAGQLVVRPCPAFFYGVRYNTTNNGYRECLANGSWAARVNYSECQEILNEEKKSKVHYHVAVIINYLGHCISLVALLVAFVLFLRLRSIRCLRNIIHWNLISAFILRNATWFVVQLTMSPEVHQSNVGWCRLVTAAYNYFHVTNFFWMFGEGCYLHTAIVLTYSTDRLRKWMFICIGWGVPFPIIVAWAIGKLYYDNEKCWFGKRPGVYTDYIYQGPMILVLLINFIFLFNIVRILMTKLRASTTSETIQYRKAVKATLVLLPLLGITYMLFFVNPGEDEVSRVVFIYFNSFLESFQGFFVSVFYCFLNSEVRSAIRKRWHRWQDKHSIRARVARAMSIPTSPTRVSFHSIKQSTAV", "assay": "cell-based or functional assay", "units": {"Average EC50 (nM), cell-based cAMP assay, Y79 cells with endogenous human CRHR1": "nM"}, "values": [
      {"molecule": "B1", "Average EC50 (nM), cell-based cAMP assay, Y79 cells with endogenous human CRHR1": "> 100000"},
      {"molecule": "[NMeI]VLSLDVPIGLLQILLEQEKQEKEKQQAK([AEEA-AEEA-γGlu-γGlu-C20 diacid])TNAQILAQV-NH2", "note": "[Example 4 (SEQ ID NO: 4)]", "Average EC50 (nM), cell-based cAMP assay, Y79 cells with endogenous human CRHR1": "> 100000"},
      {"molecule": "[NMeI]VTSLDVPIGLLQILLEQEKQEKEKQQAK([AEEA-AEEA-γGlu-γGlu-C20 diacid])TNAEILAQV-NH2", "note": "[Example 5 (SEQ ID NO: 5)]", "Average EC50 (nM), cell-based cAMP assay, Y79 cells with endogenous human CRHR1": 33900},
      {"molecule": "B2", "Average EC50 (nM), cell-based cAMP assay, Y79 cells with endogenous human CRHR1": "> 100000"},
      {"molecule": "B3", "Average EC50 (nM), cell-based cAMP assay, Y79 cells with endogenous human CRHR1": "~100000"},
      {"molecule": "IVLSLDVPIGLLQILLEQARARAAREQATTNARILARV-NH2 (ligand)", "note": "[human UCN2 (urocortin-2)]", "Average EC50 (nM), cell-based cAMP assay, Y79 cells with endogenous human CRHR1": "> 100000"},
      {"molecule": "B4", "Average EC50 (nM), cell-based cAMP assay, Y79 cells with endogenous human CRHR1": "~10000"},
      {"molecule": "Ac-IVLSLDVPIGLLQILLEQEKQEKEKQQAK([AEEA-AEEA-γGlu-γGlu-C20 diacid])TNAQILAQV-NH2", "note": "[Example 2 (SEQ ID NO: 2)]", "Average EC50 (nM), cell-based cAMP assay, Y79 cells with endogenous human CRHR1": "> 10000"}
    ]}
  ]
}
